This passage reports Kd and koff results from article PMC7721705 (2020).

The target of test [1] is T1, CXCL12 (SDF1α) (UniProt P48061-2 22-89). Briefly: SPR; low-activity fraction (KD1, heterogeneous ligand model). In general terms: Surface plasmon resonance follows binding to a sensor surface in real time, without labels.
In test [2] the target is T1, CXCL12 (SDF1α). Briefly: SPR; low-activity fraction (kd1).
Test [3] deals with T1, CXCL12 (SDF1α). The test is described as follows: SPR; high-activity fraction (kd2).
The target in test [4] is T1, CXCL12 (SDF1α). Briefly: SPR; high-activity fraction (KD2, heterogeneous ligand model).

T1 sequence (P48061 22-89): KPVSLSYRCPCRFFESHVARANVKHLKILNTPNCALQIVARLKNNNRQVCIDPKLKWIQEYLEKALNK

B1: CXCR4^QTY29 with C-terminal GSSG linker and rho1D4 tag (receptor)
chain: MEGISIYTSDNYTEEMGSGDYDSMKEPCFREENANYNKTFLPTIYSIIYQTGTVGNGLVILVMGYQKKLRSMTDKYRLHLSTADLQFVTTLPYWATDATANWYFGNFLCKAVHVIYTVNLYSSVLILAFISLDRYLAIVHATNSQRPRKLLAEKVVYVGVWTPAQLLTTPDYTFANVSEADDRYICDRFYPNDLWVVVFQFQHIMVGLILPGIVILSCYCIIISKLSHSKGHQKRKALKTTTTLIQAFFACWQPYYTGISIDSYILLEIIKQGCEFENTVHKWISTTEAQAFYHCCTNPTQYAYLGAKFKTSAQHALTSVSRGSSLKILSKGKRGGHSSVSTESESSSFHSS
For B1, the equilibrium dissociation constant (Kd) stood at 1660 nM in test [1] and 29 nM in test [4]. Besides, the koff is 0.0356 s⁻¹ in test [2] and 0.00171 s⁻¹ in test [3].

B2: native CXCR4 with C-terminal GSSG linker and rho1D4 tag (receptor)
chain: MEGISIYTSDNYTEEMGSGDYDSMKEPCFREENANFNKIFLPTIYSIIFLTGIVGNGLVILVMGYQKKLRSMTDKYRLHLSVADLLFVITLPFWAVDAVANWYFGNFLCKAVHVIYTVNLYSSVLILAFISLDRYLAIVHATNSQRPRKLLAEKVVYVGVWIPALLLTIPDFIFANVSEADDRYICDRFYPNDLWVVVFQFQHIMVGLILPGIVILSCYCIIISKLSHSKGHQKRKALKTTVILILAFFACWLPYYIGISIDSFILLEIIKQGCEFENTVHKWISITEALAFFHCCLNPILYAFLGAKFKTSAQHALTSVSRGSSLKILSKGKRGGHSSVSTESESSSFHSS
Take B2: the Kd in test [1] turned out to be 437 nM; in test [4], 56.3 nM. Also, the dissociation rate constant (koff) stood at 0.0375 s⁻¹ in test [2] and 0.00159 s⁻¹ in test [3].

As a reminder, the Kd is the concentration at which binding is half-saturated. What is called koff is a measure of how fast the partners let go of each other.
